Experimental findings from patent EP4785956A2 (CHUGAI SEIYAKU KABUSHIKI KAISHA, dated 2026) are described below.

Experiment [1] concerns the target T1, recombinant cynomolgus monkey C5 (cynomolgus monkey, UniProt P01031 19-1676 (human entry), limits assumed).
T1 construct: also called cynoC5
T1 chain: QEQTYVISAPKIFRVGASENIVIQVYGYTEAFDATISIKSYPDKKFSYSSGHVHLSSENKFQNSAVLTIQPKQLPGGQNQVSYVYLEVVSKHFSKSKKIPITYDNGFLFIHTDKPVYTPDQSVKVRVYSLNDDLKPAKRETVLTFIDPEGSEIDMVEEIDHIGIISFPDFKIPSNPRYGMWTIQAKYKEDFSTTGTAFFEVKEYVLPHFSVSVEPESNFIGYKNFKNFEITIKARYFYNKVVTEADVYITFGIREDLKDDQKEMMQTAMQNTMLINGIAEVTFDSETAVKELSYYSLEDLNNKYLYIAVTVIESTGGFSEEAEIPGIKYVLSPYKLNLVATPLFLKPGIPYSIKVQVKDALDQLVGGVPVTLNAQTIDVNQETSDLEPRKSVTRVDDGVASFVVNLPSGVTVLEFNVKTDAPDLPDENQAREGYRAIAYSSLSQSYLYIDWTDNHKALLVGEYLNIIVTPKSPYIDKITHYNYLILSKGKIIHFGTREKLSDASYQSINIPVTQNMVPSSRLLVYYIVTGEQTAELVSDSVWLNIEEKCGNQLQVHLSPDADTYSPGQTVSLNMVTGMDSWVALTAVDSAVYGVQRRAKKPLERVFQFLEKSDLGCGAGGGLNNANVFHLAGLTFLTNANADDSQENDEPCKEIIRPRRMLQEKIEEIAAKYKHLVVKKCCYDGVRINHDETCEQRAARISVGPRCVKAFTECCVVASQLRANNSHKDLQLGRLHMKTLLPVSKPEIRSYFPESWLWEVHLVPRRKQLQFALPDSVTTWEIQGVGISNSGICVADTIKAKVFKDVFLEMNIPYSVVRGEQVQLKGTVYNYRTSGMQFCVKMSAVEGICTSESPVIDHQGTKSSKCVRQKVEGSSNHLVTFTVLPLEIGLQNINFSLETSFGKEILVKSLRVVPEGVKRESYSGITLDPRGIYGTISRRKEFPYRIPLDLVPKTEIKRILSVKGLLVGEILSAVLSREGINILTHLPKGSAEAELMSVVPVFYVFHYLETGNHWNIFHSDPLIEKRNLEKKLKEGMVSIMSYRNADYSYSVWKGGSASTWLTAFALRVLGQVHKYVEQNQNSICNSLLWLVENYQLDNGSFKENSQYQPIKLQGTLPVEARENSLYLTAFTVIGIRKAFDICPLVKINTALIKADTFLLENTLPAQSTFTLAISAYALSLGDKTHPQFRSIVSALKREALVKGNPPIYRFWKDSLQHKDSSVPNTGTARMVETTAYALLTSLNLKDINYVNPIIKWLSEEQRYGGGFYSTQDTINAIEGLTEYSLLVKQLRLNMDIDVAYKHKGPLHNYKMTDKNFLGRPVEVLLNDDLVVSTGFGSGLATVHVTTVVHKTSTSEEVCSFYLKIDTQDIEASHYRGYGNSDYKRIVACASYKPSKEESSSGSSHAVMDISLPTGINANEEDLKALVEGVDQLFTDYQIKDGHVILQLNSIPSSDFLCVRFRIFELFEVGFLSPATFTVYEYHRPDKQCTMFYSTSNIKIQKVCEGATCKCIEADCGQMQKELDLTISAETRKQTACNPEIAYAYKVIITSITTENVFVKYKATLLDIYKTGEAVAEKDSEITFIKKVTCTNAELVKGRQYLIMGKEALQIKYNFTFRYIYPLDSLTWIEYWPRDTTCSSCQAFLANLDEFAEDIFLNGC
As to the kind of experiment: SPR (BIACORE T200), antibody captured by ProA/G, recombinant cynoC5 injected, 37 degrees C, pH7.4. Background: Surface plasmon resonance follows binding to a sensor surface in real time, without labels.

Experiment [2] has as its target T2, recombinant human C5 (human, UniProt P01031 20-1676).
T2 construct: The same entry is used here for C5 in normal human serum in the functional rows; also called hC5; rhC5
In words: SPR (BIACORE T200), antibody captured by ProA/G, recombinant human C5 injected, 37 degrees C, pH5.8; pH 5.8.

Experiment [3] deals with T2, recombinant human C5. In words: SPR (BIACORE T200), antibody captured by ProA/G, recombinant human C5 injected, 37 degrees C, pH7.4; pH 7.4.

B1: CFA0366 (antibody, V domains shown)
VH: QSLEESGGDLVKPGASLSLTCTAAGLDFSSSYYMCWVRQAPGKGLEWIACIYAGSSGIIYYANWAKGRFTISRPSSTTVTLQMTSLTAADTATYFCATYPTYGDGGHAFNLWGPGTLVTVSS
VL: AQVLTQTPSSVSAAVGGTVTINCQSSQSVYSSDYLSWYQQKPGQPPKLLIYEASKLASGVPPRFSGSGSGTQFTLTISGVQCDDAATYYCQGTYYSSGWYFAFGGGTEVVVK
On to B1, for which the koff (commonly the rate constant with which the complex falls apart) came out at 0.00904 s⁻¹ in experiment [1], 0.0703 s⁻¹ with recombinant human C5 [2] and 0.00934 s⁻¹ with recombinant human C5 [3]. Further, the results for the kon (in experiment [1]; with recombinant human C5 [2]; with recombinant human C5 [3]) were 504000 M⁻¹ s⁻¹, 935000 M⁻¹ s⁻¹ and 1.04e+06 M⁻¹ s⁻¹, respectively.

B2: CFA0330 (antibody, V domains shown)
VH: QSLEESGGDLVEPGASLTLTCTASGFSWNSGYDMCWVRQAPGKGLEWIACIYTGSSANTAYANWAKGRFTISKTSSTTVTLQMTGLTAADTATYFCARHDDYFFDLWGPGTLVTVSS
VL: DVVMTQTPASVSESVGGTVTINCQASQSIGNNLAWYQQKPGQPPKLLIYDASNLASGVPSRFKGSRSGTEPTLTNTLTISGVQCADVATYYCQSGWYGNSYVAAFGGGTEVVVKR
Turning to B2, the koff with recombinant human C5 [2] amounted to 0.000224 s⁻¹; with recombinant human C5 [3] it was 0.000202 s⁻¹. In addition, the kon – broadly, the rate constant with which the complex forms – in the experiment with recombinant human C5 [2] worked out at 1.22e+06 M⁻¹ s⁻¹; in the experiment with recombinant human C5 [3] it was 1.66e+06 M⁻¹ s⁻¹.

B3: CFA0341 (antibody, V domains shown)
VH: QSVEESGGRLVTPGTPLTLTCTVSGIDLSSYTMGWVRQAPGKGLECIGYIHSFGSTYYASWAKGRFTISKTSTTVDLEITSPTTEDTATYFCARDVGGSSGWDLWGQGTLVTVSS
VL: DVVMTQTPSSVSAAVGGTVTIKCQASENIYSNLAWYQQKPGQPPKRLIYDASDLASGVPSRFSGSGYGTQFTLTISGVQCEDAATYYCQANYDSTSSSFGNVFGGGTEVVVK
Regarding B3, in the experiment with recombinant human C5 [2], the koff amounted to 7.39e-05 s⁻¹ and the kon was determined as 1.24e+06 M⁻¹ s⁻¹. Also, in the experiment with recombinant human C5 [3], the koff was determined as 9.77e-05 s⁻¹ and the kon was found to be 628000 M⁻¹ s⁻¹.

B4: CFA0599 (antibody, V domains shown)
VH: QSVEESGGRLVTPGTPLTLTCTVSGLSLSDNTMTWVRQAPGKGLEWIGIISFGGDAYYASWAKGRFPISKTSTTVDLRITSPTTEDTATYFCARVGAGNIFWYFDLWGPGTLVTVSS
VL: AYDMTQTPASVEVSVGGTVTIKCQASESIYSALAWYQQKPGQPPKLLIYSASTLASGVPSRFKGSGSGTEYTLTISDLECADAATYYCQQYYSSTNVHNSFGGGTTVVVE
B4: the koff in experiment [1] was 0.00235 s⁻¹; with recombinant human C5 [2] it was 0.0373 s⁻¹; in the experiment with recombinant human C5 [3], 0.00281 s⁻¹. Moreover, the kon in experiment [1] amounted to 542000 M⁻¹ s⁻¹; with recombinant human C5 [2], 454000 M⁻¹ s⁻¹; with recombinant human C5 [3], 474000 M⁻¹ s⁻¹.

B5: CFA0305 (antibody, V domains shown)
VH: QSLEESGGDLVKPGASLAVTCTASGFSSSSSYYMCWVRQAPGKGLEWIGCIYTGSGATYYASWAKGRFTISKTSSTTVTLQMTSLTVADTATYFCASDGGYVTPTHAMYLWGPGTLVTVSS
VL: DVVMTQTPASVSAAVGGTVTIKCQASQNIGSDLAWYQQKPGQPPRLLIYGASKLASGVSSRFSGSGSGKEFTLTISDLECADAVTYYCQCTFVGSSYGNAFGGGTEVVVK
On to B5, for which the results for the off-rate (koff) (in experiment [1]; with recombinant human C5 [2]; in the experiment with recombinant human C5 [3]) were 0.00067 s⁻¹, 0.0183 s⁻¹ and 0.000589 s⁻¹, respectively. In addition, the kon worked out at 12100 M⁻¹ s⁻¹ in experiment [1], 42700 M⁻¹ s⁻¹ in the experiment with recombinant human C5 [2] and 38200 M⁻¹ s⁻¹ with recombinant human C5 [3].

B6: CFA0501 (antibody, V domains shown)
VH: QSVEESGGRLVTPGTPLTLTCTASGFSLSSYYMNWVRQAPGKGLEWIGMIYGSGATYYASWAKGRFTISKTSSTTVDLKMTSLTTEDTATYFCARQIYSGDNNDNFWGPGTLVTVSS
VL: AYDMTQTPASVEVAVGGTVTINCQASESISNWLAWYQQKPGQRPKLLIYRASTLASGVSSRFKGSGSGTQFTLTISGVECDDAATYYCQQDYSSSNVDNTFGGGTKVVVE
As for B6, the results for the koff (in experiment [1]; with recombinant human C5 [2]; in the experiment with recombinant human C5 [3]) were 0.00156 s⁻¹, 0.0262 s⁻¹ and 0.00169 s⁻¹, respectively. Further, the kon in experiment [1] came to 266000 M⁻¹ s⁻¹; with recombinant human C5 [2], 150000 M⁻¹ s⁻¹; with recombinant human C5 [3] it was 474000 M⁻¹ s⁻¹.

B7: CFA0538 (antibody, V domains shown)
VH: QSVEESGGRLVTPGTPLTLTCTASGFSLSSYYMNWVRQAPGKGLEWIGMIYGSGATYYASWAKGRFTISKTSSTTVDLKMTSLTTEDTATYFCARQIYSGDNNDNFWGPGTLVTVSS
VL: AYDMTQTPASVEVAVGGTVTINCQASESISNWLAWYQQKPGQRPKLLIYRASTLASGVSSRFKGSGSGTQFTLTISGVECDDAATYYCQQDYSSSNVDNTFGGGTTVVVE
In the case of B7, the off-rate constant (koff) was 0.00166 s⁻¹ in experiment [1], 0.0301 s⁻¹ in the experiment with recombinant human C5 [2] and 0.00185 s⁻¹ with recombinant human C5 [3]. The values for the kon (in experiment [1]; with recombinant human C5 [2]; with recombinant human C5 [3]) were 305000 M⁻¹ s⁻¹, 122000 M⁻¹ s⁻¹ and 473000 M⁻¹ s⁻¹, respectively.

B8: CFA0307 (antibody, V domains shown)
VH: QSLEESGGGLVKPGASLTLTCKASGIDFSNFYYICWVRQAPGKGLDLIACIYTVSGYTYYASWAKGRLTISKTSSTTVTLQMTSLTAADTATYFCARDLHAGITNLWGPGTLVTVSS
VL: AIEMTQTPFSVSAAVGGTVTIKCQASQNIYSNLAWYQQKPGQRPKLLIYGASNLESGVPSRFKGSGSGTEYTLTISDLECADAATYYCLQGYSYSNVDDAFGGGTEVVVK
Turning to B8, the koff came out at 0.00223 s⁻¹ in experiment [1], 0.0334 s⁻¹ in the experiment with recombinant human C5 [2] and 0.00263 s⁻¹ with recombinant human C5 [3]. The kon was found to be 290000 M⁻¹ s⁻¹ in experiment [1], 204000 M⁻¹ s⁻¹ with recombinant human C5 [2] and 324000 M⁻¹ s⁻¹ in the experiment with recombinant human C5 [3].

B9: CFA0672 (antibody, V domains shown)
VH: QSVEESGGRLVTPGTPLTLTCTASGFSLSGNAINWVRQAPGKGLEWIGCIYTGSDTTYYATWAKGRFTISKTSTTVDLKIASPTTEDTATYFCARGSGLWGPGTLVTVSS
VL: DVVMTQTPASVSAPVGGTVTIKCQASQNIYSLLAWYQQKPGQPPKLLIYHTSDLASGVPSRFRGSGSGTEFTLTISDLECADAATYYCQCTAYGSSDVGGTFGGGTTVVVE
Consider B9, for which the koff in experiment [1] is 0.00185 s⁻¹; in the experiment with recombinant human C5 [2] it was 0.00978 s⁻¹; with recombinant human C5 [3], 0.000183 s⁻¹. Further, the kon in experiment [1] came out at 641000 M⁻¹ s⁻¹; with recombinant human C5 [2], 71100 M⁻¹ s⁻¹; with recombinant human C5 [3], 523000 M⁻¹ s⁻¹.

B10: CFA0666 (antibody, V domains shown)
VH: QSVEESGGRLVTPGTPLTLTCTVSGFSLSTYAMGWVRQAPGKGLEWIGTIDTGDNSFYANWAKGRFTISKTSTTVDLKITSPTAEDTATYFCARNDGSVYNLFNLWGPGTLVTVSS
VL: DVVMTQTPASVSAAVGGTVTIKCQASENIYSALSWYQQKPGLRPRLLIYYASTLASGVPSRFKGSRSGTEFTLTISDLECADAATYYCQQYYDINSVDNTFGGGTKVVVE
As to B10, the koff in experiment [1] turned out to be 0.000493 s⁻¹; with recombinant human C5 [2], 0.00939 s⁻¹; with recombinant human C5 [3], 0.000626 s⁻¹. Also, the kon was determined as 314000 M⁻¹ s⁻¹ in experiment [1], 282000 M⁻¹ s⁻¹ with recombinant human C5 [2] and 365000 M⁻¹ s⁻¹ with recombinant human C5 [3].

B11: CFA0675 (antibody, V domains shown)
VH: QSVEESGGRLVTPGTPLTLTCTVSGFSLSTYAMGWVRQAPGKGLEWIGTIDTGDNSFYANWAKGRFTISRTSTTVDLKITSPTAEDTATYFCARNDGSVYNLFNLWGPGTLVTVSS
VL: DVVMTQTPASVSAAVGGTVTIKCQASENIYSALSWYQQKPGLRPRLLIYYASTLASGVPSRFKGSRSGTEFTLTISDLECADAASYYCQQYYDINSVDNTFGGGTKVVVE
On to B11, for which the koff in experiment [1] came out at 0.000378 s⁻¹; in the experiment with recombinant human C5 [2], 0.00661 s⁻¹; in the experiment with recombinant human C5 [3] it was 0.000412 s⁻¹. The values for the kon (in experiment [1]; in the experiment with recombinant human C5 [2]; with recombinant human C5 [3]) were 294000 M⁻¹ s⁻¹, 389000 M⁻¹ s⁻¹ and 383000 M⁻¹ s⁻¹, respectively.
